Reference: the supplement of paper PMC11246515
± gives the standard deviation of the averaged measurements.

Assay: total protein half-life in vivo (active degradation + dilution); higher = more stable protein
[1] = wild type E. coli NCM3722, growth: C-lim chemostat, doubling time 3 h
[2] = wild type E. coli NCM3722, growth: C-lim chemostat, doubling time 6 h
[3] = wild type E. coli NCM3722, growth: C-lim chemostat, doubling time 12 h
[4] = E. coli NCM3722 delta-clpP delta-lon delta-hslV, growth: N-lim chemostat, doubling time 6 h
[5] = E. coli NCM3722 delta-clpP, growth: N-lim chemostat, doubling time 6 h
[6] = wild type E. coli NCM3722, growth: N-lim chemostat, doubling time 6 h
[7] = wild type E. coli NCM3722, growth: N-lim chemostat, doubling time 12 h
[8] = wild type E. coli NCM3722, growth: P-lim chemostat, doubling time 12 h
[9] = E. coli NCM3722 delta-hslV, growth: N-lim chemostat, doubling time 6 h
[10] = E. coli NCM3722 delta-lon, growth: N-lim chemostat, doubling time 6 h
[11] = E. coli NCM3722 delta-smpB, growth: N-lim chemostat, doubling time 6 h
[12] = wild type E. coli NCM3722, growth: P-lim chemostat, doubling time 6 h

Sequence	total protein half-life in vivo [1] [h]	total protein half-life in vivo [2] [h]	total protein half-life in vivo [3] [h]	total protein half-life in vivo [4] [h]	total protein half-life in vivo [5] [h]	total protein half-life in vivo [6] [h]	total protein half-life in vivo [7] [h]	total protein half-life in vivo [8] [h]	total protein half-life in vivo [9] [h]	total protein half-life in vivo [10] [h]	total protein half-life in vivo [11] [h]	total protein half-life in vivo [12] [h]
MSQTSTLKGQCIAEFLGTGLLIFFGVGCVAALKVAGASFGQWEISVIWGLGVAMAIYLTAGVSGAHLNPAVTIALWLFACFDKRKVIPFIVSQVAGAFCAAALVYGLYYNLFFDFEQTHHIVRGSVESVDLAGTFSTYPNPHINFVQAFAVEMVITAILMGLILALTDDGNGVPRGPLAPLLIGLLIAVIGASMGPLTGFAMNPARDFGPKVFAWLAGWGNVAFTGGRDIPYFLVPLFGPIVGAIVGAFAYRKLIGRHLPCDICVVEEKETTTPSEQKASL [P0AER0]	2.07	4.17	6.363 ± 0.04									
MSDQIIARVSQSLAKEQSLESLVRQLLEMLEMVTDMESTYLTKVDVEARLQHIMFARNSQKMYIPENFTVSWDYSLCKRAIDENCFFSDEVPDRWGDCIAARNLGITTFLSTPIHLPDGSFYGTLCAASSEKRQWSERAEQVLQLFAGLIAQYIQKEALVEQLREANAALIAQSYTDSLTGLPNRRAIFENLTTLFSLARHLNHKIMIAFIDLDNFKLINDRFGHNSGDLFLIQVGERLNTLQQNGEVIGRLGGDEFLVVSLNNENADISSLRERIQQQIRGEYHLGDVDLYYPGASLGIVEVDPETTDADSALHAADIAMYQEKKHKQKTPFVAHPALHS	0.233											
MNALTAVQNNAVDSGQDYSGFTLTPSAQSPRLLELTFTEQTTKQFLEQVAEWPVQALEYKSFLRFRVAKILDDLCANQLQPLLLKTLLNRAEGALLINAVGVDDVKQADEMVKLATAVAHLIGRSNFDAMSGQYYARFVVKNVDNSDSYLRQPHRVMELHNDGTYVEEITDYVLMMKIDEQNMQGGNSLLLHLDDWEHLDNYFRHPLARRPMRFAAPPSKNVSKDVFHPVFDVDQQGRPVMRYIDQFVQPKDFEEGVWLSELSDAIETSKGILSVPVPVGKFLLINNLFWLHGRDRFTPHPDLRRELMRQRGYFAYASNHYQTHQ	0.794 ± 0.23	1.18 ± 0.23	0.791 ± 0.35	5.49 ± 0.24	1.73 ± 0.11	1.3	1.1 ± 0.12	1.17 ± 0.72				
MEYQHWLREAISQLQASESPRRDAEILLEHVTGRGRTFILAFGETQLTDEQCQQLDALLTRRRDGEPIAHLTGVREFWSLPLFVSPATLIPRPDTECLVEQALARLPEQPCRILDLGTGTGAIALALASERPDCEIIAVDRMPDAVSLAQRNAQHLAIKNIHILQSDWFSALAGQQFAMIVSNPPYIDEQDPHLQQGDVRFEPLTALVAADSGMADIVHIIEQSRNALVSGGFLLLEHGWQQGEAVRQAFILAGYHDVETCRDYGDNERVTLGRYYQ [P0ACC1]		5.5 ± 0.85	9.85	4.72 ± 1.1	3.88		5.79 ± 0.26	9.69 ± 0.87	3.35	4.15 ± 0.14	3.23	5.35 ± 0.41
MRLSLPRLKMPRLPGFSILVWISTALKGWVMGSREKDTDSLIMYDRTLLWLTFGLAAIGFIMVTSASMPIGQRLTNDPFFFAKRDGVYLILAFILAIITLRLPMEFWQRYSATMLLGSIILLMIVLVVGSSVKGASRWIDLGLLRIQPAELTKLSLFCYIANYLVRKGDEVRNNLRGFLKPMGVILVLAVLLLAQPDLGTVVVLFVTTLAMLFLAGAKLWQFIAIIGMGISAVVLLILAEPYRIRRVTAFWNPWEDPFGSGYQLTQSLMAFGRGELWGQGLGNSVQKLEYLPEAHTDFIFAIIGEELGYVGVVLALLMVFFVAFRAMSIGRKALEIDHRFSGFLACSIGIWFSFQALVNVGAAAGMLPTKGLTLPLISYGGSSLLIMSTAIMMLLRIDYETRLEKAQAFVRGSR [P0ABG4]	2.41 ± 0.21		3.2	4.49	2.97 ± 0.5			5	3.01	3.64	2.76 ± 0.73	2.93
MTKTLLDGPGRVLESVYPRFLVDLAQGDDARLPQAHQQQFRERLMQELLSRVQLQTWTNGGMLNAPLSLRLTLVEKLASMLDPGHLALTQIAQHLALLQKMDHRQHSAFPELPQQIAALYEWFSARCRWKEKALTQRGLLVQAGDQSEQIFTRWRAGAYNAWSLPGRCFIVLEELRWGAFGDACRLGSPQAVALLLGDLLEKATQHLAESINAAPTTRHYYHQWFASSTVPTGGEHADFLSWLGKWTTADKQPVCWSVTQRWQTVALGMPRLCSAQRLAGAMLEEIFSVNLA	2.56 ± 0.43	5.83 ± 1.1	7.8					12.1 ± 0.79			3.06	
MNNDVFPNKFKAALAAKQVQIGCWSALSNPISTEVLGLAGFDWLVLDGEHAPNDISTFIPQLMALKGSASAPVVRVPTNEPVIIKRLLDIGFYNFLIPFVETKEEAELAVASTRYPPEGIRGVSVSHRANMFGTVADYFAQSNKNITILVQIESQQGVDNVDAIAATEGVDGIFVGPSDLAAALGHLGNASHPDVQKAIQHIFNRASAHGKPSGILAPVEADARRYLEWGATFVAVGSDLGVFRSATQKLADTFKK	3.2103 ± 7.8e-05	5.123 ± 0.023	9.79 ± 0.92	4.58 ± 0.62	4.02 ± 1.4	3.355 ± 0.022	7.58	11.6 ± 0.72	2.99 ± 0.14	3.19	3.51 ± 0.42	
MHYQPKQDLLNDRIILVTGASDGIGREAAMTYARYGATVILLGRNEEKLRQVASHINEETGRQPQWFILDLLTCTSENCQQLAQRIAVNYPRLDGVLHNAGLLGDVCPMSEQNPQVWQDVMQVNVNATFMLTQALLPLLLKSDAGSLVFTSSSVGRQGRANWGAYAASKFATEGMMQVLADEYQQRLRVNCINPGGTRTAMRASAFPTEDPQKLKTPADIMPLYLWLMGDDSRRKTGMTFDAQPGRKPGISQ	2.99 ± 0.043	5.77 ± 0.044	9.39 ± 1.9	4.5 ± 0.46	4.29 ± 0.28	3.68 ± 0.25	5.92 ± 0.058	11.3 ± 0.24	3.87 ± 0.11	4.56 ± 0.44	3.62 ± 0.049	6.22 ± 0.24
